Measurements published in the supplement of paper PMC9112550, “Optimization of the antimicrobial peptide Bac7 by deep mutational scanning” (BMC Biology, 2022).

Test system: Escherichia coli TOP10
Test: shrunken log2 fold change of peptide-encoding DNA abundance (4.5 h post-induction vs induction); higher = less antimicrobial activity (less host growth inhibition)
Settings: time post-induction: 4.5 h; library: site-saturation at positions 5, 18, 19, 20
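Also: peptides expressed intracellularly from a pBAD plasmid library in pooled LB shake-flask culture, induced with 0.3% L-arabinose, DNA abundance read by NGS, three biological replicates, DESeq2 with apeglm shrinkage.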

Row | Sequence | shrunken log2 fold change
1 | RRIRERPPRLPRPRPRPITKPRP | -0.107
2 | RRIRERPPRLPRPRPRPIVHPRP | -0.355
3 | RRIRERPPRLPRPRPRPIVKPRP | -0.0406
4 | RRIRERPPRLPRPRPRPIWPPRP | 0.0406
5 | RRIRERPPRLPRPRPRPIWTPRP | -0.0563
6 | RRIRERPPRLPRPRPRPIYIPRP | -0.138
7 | RRIRERPPRLPRPRPRPIYPPRP | -0.0605
8 | RRIRERPPRLPRPRPRPKAAPRP | 0.0382
9 | RRIRERPPRLPRPRPRPKAKPRP | -0.0257
10 | RRIRERPPRLPRPRPRPKANPRP | 0.0174
11 | RRIRERPPRLPRPRPRPKCDPRP | 0.175
12 | RRIRERPPRLPRPRPRPKCLPRP | -0.0209
13 | RRIRERPPRLPRPRPRPKCYPRP | -1.04
14 | RRIRERPPRLPRPRPRPKEIPRP | -0.357
15 | RRIRERPPRLPRPRPRPKFIPRP | -0.144
16 | RRIRERPPRLPRPRPRPKFKPRP | -0.355
17 | RRIRERPPRLPRPRPRPKFRPRP | -0.315
18 | RRIRERPPRLPRPRPRPKFTPRP | -0.147
19 | RRIRERPPRLPRPRPRPKGDPRP | -0.0914
20 | RRIRERPPRLPRPRPRPKHVPRP | -0.146
21 | RRIRERPPRLPRPRPRPKIHPRP | -0.233
22 | RRIRERPPRLPRPRPRPKLRPRP | -0.0804
23 | RRIRERPPRLPRPRPRPKNSPRP | -0.52
24 | RRIRERPPRLPRPRPRPKQHPRP | 0.241
25 | RRIRERPPRLPRPRPRPKSSPRP | -0.0505

Row | Sequence | shrunken log2 fold change
26 | RRIRERPPRLPRPRPRPKTDPRP | -0.497
27 | RRIRERPPRLPRPRPRPKTKPRP | -0.00738
28 | RRIRERPPRLPRPRPRPKVDPRP | 0.0519
29 | RRIRERPPRLPRPRPRPKVRPRP | -0.0607
30 | RRIRERPPRLPRPRPRPKVTPRP | -0.114
31 | RRIRERPPRLPRPRPRPKWIPRP | -0.54
32 | RRIRERPPRLPRPRPRPKYTPRP | -0.297
33 | RRIRERPPRLPRPRPRPLANPRP | -0.225
34 | RRIRERPPRLPRPRPRPLCCPRP | -0.191
35 | RRIRERPPRLPRPRPRPLCEPRP | 0.0297
36 | RRIRERPPRLPRPRPRPLCRPRP | -0.0964
37 | RRIRERPPRLPRPRPRPLDAPRP | -0.17
38 | RRIRERPPRLPRPRPRPLEHPRP | -0.277
39 | RRIRERPPRLPRPRPRPLERPRP | -0.191
40 | RRIRERPPRLPRPRPRPLFCPRP | -0.211
41 | RRIRERPPRLPRPRPRPLGRPRP | -0.0894
42 | RRIRERPPRLPRPRPRPLIPPRP | -0.463
43 | RRIRERPPRLPRPRPRPLLRPRP | -0.152
44 | RRIRERPPRLPRPRPRPLMIPRP | -0.348
45 | RRIRERPPRLPRPRPRPLMYPRP | -0.0754
46 | RRIRERPPRLPRPRPRPLNKPRP | -0.47
47 | RRIRERPPRLPRPRPRPLNNPRP | -0.705
48 | RRIRERPPRLPRPRPRPLNYPRP | -0.176
49 | RRIRERPPRLPRPRPRPLPWPRP | 0.0953
50 | RRIRERPPRLPRPRPRPLQYPRP | -0.286

Row | Sequence | shrunken log2 fold change
51 | RRIRERPPRLPRPRPRPLRMPRP | 0.167
52 | RRIRERPPRLPRPRPRPLRQPRP | 0.0463
53 | RRIRERPPRLPRPRPRPLSDPRP | -0.0828
54 | RRIRERPPRLPRPRPRPLSIPRP | -0.367
55 | RRIRERPPRLPRPRPRPLTEPRP | -0.298
56 | RRIRERPPRLPRPRPRPLTRPRP | 0.167
57 | RRIRERPPRLPRPRPRPLTYPRP | -0.188
58 | RRIRERPPRLPRPRPRPLVAPRP | 0.0966
59 | RRIRERPPRLPRPRPRPLVFPRP | -0.153
60 | RRIRERPPRLPRPRPRPLWCPRP | -0.0233
61 | RRIRERPPRLPRPRPRPLWLPRP | -0.203
62 | RRIRERPPRLPRPRPRPLYCPRP | -0.444
63 | RRIRERPPRLPRPRPRPLYNPRP | -0.264
64 | RRIRERPPRLPRPRPRPMANPRP | 0.0745
65 | RRIRERPPRLPRPRPRPMAWPRP | 0.151
66 | RRIRERPPRLPRPRPRPMDAPRP | -0.0623
67 | RRIRERPPRLPRPRPRPMDGPRP | 0.0211
68 | RRIRERPPRLPRPRPRPMGEPRP | -0.00192
69 | RRIRERPPRLPRPRPRPMHNPRP | -0.437
70 | RRIRERPPRLPRPRPRPMHPPRP | 0.464
71 | RRIRERPPRLPRPRPRPMHVPRP | 0.05
72 | RRIRERPPRLPRPRPRPMIEPRP | -0.184
73 | RRIRERPPRLPRPRPRPMIFPRP | -0.223
74 | RRIRERPPRLPRPRPRPMILPRP | -0.388
75 | RRIRERPPRLPRPRPRPMLVPRP | -0.225

Row | Sequence | shrunken log2 fold change
76 | RRIRERPPRLPRPRPRPMNHPRP | -0.811
77 | RRIRERPPRLPRPRPRPMPKPRP | 0.153
78 | RRIRERPPRLPRPRPRPMQMPRP | -0.254
79 | RRIRERPPRLPRPRPRPMRGPRP | 1.19
80 | RRIRERPPRLPRPRPRPMTDPRP | -0.131
81 | RRIRERPPRLPRPRPRPMWSPRP | -0.351
82 | RRIRERPPRLPRPRPRPNAEPRP | 0.103
83 | RRIRERPPRLPRPRPRPNAFPRP | -0.568
84 | RRIRERPPRLPRPRPRPNAWPRP | 0.113
85 | RRIRERPPRLPRPRPRPNDLPRP | -0.016
86 | RRIRERPPRLPRPRPRPNDMPRP | -0.0595
87 | RRIRERPPRLPRPRPRPNDRPRP | -0.426
88 | RRIRERPPRLPRPRPRPNENPRP | -0.111
89 | RRIRERPPRLPRPRPRPNEVPRP | 0.0321
90 | RRIRERPPRLPRPRPRPNFCPRP | 0.00589
91 | RRIRERPPRLPRPRPRPNFTPRP | -0.111
92 | RRIRERPPRLPRPRPRPNFWPRP | 1.9
93 | RRIRERPPRLPRPRPRPNGEPRP | -0.0424
94 | RRIRERPPRLPRPRPRPNGLPRP | -0.0319
95 | RRIRERPPRLPRPRPRPNGVPRP | -0.2
96 | RRIRERPPRLPRPRPRPNHVPRP | -0.25
97 | RRIRERPPRLPRPRPRPNILPRP | -0.991
98 | RRIRERPPRLPRPRPRPNIRPRP | -0.273
99 | RRIRERPPRLPRPRPRPNKWPRP | -0.576
100 | RRIRERPPRLPRPRPRPNLQPRP | -0.208

Row | Sequence | shrunken log2 fold change
101 | RRIRERPPRLPRPRPRPNLRPRP | 0.0952
102 | RRIRERPPRLPRPRPRPNNCPRP | -0.24
103 | RRIRERPPRLPRPRPRPNPDPRP | -0.2
104 | RRIRERPPRLPRPRPRPNQFPRP | -0.525
105 | RRIRERPPRLPRPRPRPNRDPRP | -0.192
106 | RRIRERPPRLPRPRPRPNTCPRP | -1.13
107 | RRIRERPPRLPRPRPRPNTKPRP | 0.0156
108 | RRIRERPPRLPRPRPRPNTNPRP | -0.0492
109 | RRIRERPPRLPRPRPRPNTTPRP | 0.123
110 | RRIRERPPRLPRPRPRPNVKPRP | -0.195
111 | RRIRERPPRLPRPRPRPNWQPRP | 0.103
112 | RRIRERPPRLPRPRPRPNYDPRP | -0.873
113 | RRIRERPPRLPRPRPRPNYMPRP | -0.667
114 | RRIRERPPRLPRPRPRPPAIPRP | -0.0287
115 | RRIRERPPRLPRPRPRPPDAPRP | 0.142
116 | RRIRERPPRLPRPRPRPPDEPRP | -0.0361
117 | RRIRERPPRLPRPRPRPPDRPRP | -0.00621
118 | RRIRERPPRLPRPRPRPPFIPRP | -0.299
119 | RRIRERPPRLPRPRPRPPFNPRP | -0.275
120 | RRIRERPPRLPRPRPRPPFRPRP | 0.173
121 | RRIRERPPRLPRPRPRPPFVPRP | 0.072
122 | RRIRERPPRLPRPRPRPPHPPRP | -0.0298
123 | RRIRERPPRLPRPRPRPPIDPRP | 0.0361
124 | RRIRERPPRLPRPRPRPPKCPRP | 0.0212
125 | RRIRERPPRLPRPRPRPPKTPRP | -0.124

Row | Sequence | shrunken log2 fold change
126 | RRIRERPPRLPRPRPRPPMPPRP | 0.0249
127 | RRIRERPPRLPRPRPRPPMTPRP | -0.163
128 | RRIRERPPRLPRPRPRPPNIPRP | -0.207
129 | RRIRERPPRLPRPRPRPPPYPRP | -0.231
130 | RRIRERPPRLPRPRPRPPQIPRP | 0.15
131 | RRIRERPPRLPRPRPRPPQSPRP | 0.0516
132 | RRIRERPPRLPRPRPRPPRCPRP | -0.0309
133 | RRIRERPPRLPRPRPRPPRGPRP | 0.519
134 | RRIRERPPRLPRPRPRPPTAPRP | 0.0872
135 | RRIRERPPRLPRPRPRPPTYPRP | -0.168
136 | RRIRERPPRLPRPRPRPPYIPRP | -0.252
137 | RRIRERPPRLPRPRPRPPYNPRP | -0.728
138 | RRIRERPPRLPRPRPRPQAVPRP | 0.0552
139 | RRIRERPPRLPRPRPRPQCWPRP | -0.0051
140 | RRIRERPPRLPRPRPRPQEVPRP | -0.0156
141 | RRIRERPPRLPRPRPRPQFCPRP | -0.0627
142 | RRIRERPPRLPRPRPRPQFGPRP | 0.222
143 | RRIRERPPRLPRPRPRPQGLPRP | -0.141
144 | RRIRERPPRLPRPRPRPQHQPRP | -0.15
145 | RRIRERPPRLPRPRPRPQILPRP | -0.179
146 | RRIRERPPRLPRPRPRPQIPPRP | -0.237
147 | RRIRERPPRLPRPRPRPQNHPRP | -0.519
148 | RRIRERPPRLPRPRPRPQNTPRP | -0.497
149 | RRIRERPPRLPRPRPRPQNYPRP | -0.409
150 | RRIRERPPRLPRPRPRPQPLPRP | -0.202
